Patent US20110065198A1 (NEXIGEN, published 2011)

Key:
[1] = target: T1, glutathione-S-transferase (GST) alone, not fused to Vif (UniProt P08515 1-218 = GST); experiment: GST pull-down, 35S in vitro translated protein, SDS-PAGE autoradiography, FIG. 3b lane 12
[2] = target: T1, glutathione-S-transferase (GST) alone, …; experiment: GST pull-down, 35S in vitro translated protein, SDS-PAGE autoradiography, FIG. 3c lane 15
From the text: (§1) Lanes 7 to 12 represent the respective pull-down results of the afore-mentioned radioactively labelled in vitro translated proteins by GST-Vif glutathione sepharose beads. […] Lanes 13 to 18 represent the control for the specificity of the GST pulldown experiment, i.e. for the binding specificity of the in vitro translated proteins to Vif. Therefore, lanes 13 to 18 in particular represent the results of GST pull-down, wherein GST was used alone, i.e. without being fused to Vif.
(§2) The binding of interaction candidates to Vif was performed with shaking for one hour at room temperature in binding buffer containing 20 mM NaCl, 20 mMTris pH 8.0, 0.5% NP40 and bovine serum albumine 100 μg/ml. After incubation beads were pelleted by spinning at 500 g for 2 min. and 4 washing steps with 1 ml washing buffer (binding buffer without serum albumin) were followed.

[3] = target: T1, glutathione-S-transferase (GST) alone, …; experiment: GST pull-down, 35S in vitro translated protein, SDS-PAGE autoradiography, FIG. 3b lane 13
[4] = target: T1, glutathione-S-transferase (GST) alone, …; experiment: GST pull-down, 35S in vitro translated protein, SDS-PAGE autoradiography, FIG. 3c lane 14
From the text: as §1, §2

T1 sequence (P08515 whole entry, the tested form may be a part): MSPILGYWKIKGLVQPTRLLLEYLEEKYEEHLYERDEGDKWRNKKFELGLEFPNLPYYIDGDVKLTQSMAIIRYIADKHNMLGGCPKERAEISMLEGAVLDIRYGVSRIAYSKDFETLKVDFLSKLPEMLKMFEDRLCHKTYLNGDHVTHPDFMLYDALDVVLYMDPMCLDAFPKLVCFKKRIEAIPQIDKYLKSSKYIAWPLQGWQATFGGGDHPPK

B1: in vitro translated HERC4 (other, human, UniProt Q5GLZ8 915-1057, looked up)
chain: AFHAGFHKVCGGKVLLLFQPNELQAMVIGNTNYDWKELEKNTEYKGEYWAEHPTIKIFWEVFHELPLEKKKQFLLFLTGSDRIPILGMKSLKLVIQSTGGGEEYLPVSHTCFNLLDLPKYTEKETLRSKLIQAIDHNEGFSLI
[1]
  binding result: no binding

B2: in vitro translated PTGES3 (other)
chain: RRDYVFIEFCVEDSKDVNVNFEKSKLTFSCLGGSDNFKHLNEIDLFHCIDPNDSKHKRTDRSILCCLRKGESGQSWPRLTKERAKLNWLSVDFNNWKDWEDDSDEDMSNFDRFSEMMNNMGGDEDVDLPEVDGADDDSQDSDDEKMPDLE
[2]
  binding result: no binding

## VLIVCVPNPPIDEKNATMPVTMLIRVKTSEDADELHKILLEKKDA (other) [in vitro translated NUP50]
[3]
  binding result: no binding

B3: in vitro translated TPT1 (other, human, UniProt P13693 1-172, looked up)
chain: MIIYRDLISHDEMFSDIYKIREIADGLCLEVEGKMVSRTEGNIDDSLIGGNASAEGPEGEGTESTVITGVDIVMNHHLQETSFTKEAYKKYIKDYMKSIKGKLEEQRPERVKPFMTGAAEQIKHILANFKNYQFFIGENMNPDGMVALLDYREDGVTPYMIFFKDGLEMEKC
notes: also called TCTP
[4]
  binding result: no binding
